Laboratory results from PMC12507517.

Molecular target: RelA homodimer (UniProt Q04206)
Experiment: BLI
Settings: EMSA: 10 mM Tris-HCl pH 7.5, 50 mM NaCl, 10% glycerol, 1% NP-40, 1 mM EDTA, 0.1 mg/mL salmon sperm DNA, room temp; BLI: 25 mM Tris-HCl pH 7.5, 150 mM NaCl …

RelA homodimer, sequence (Q04206 whole entry): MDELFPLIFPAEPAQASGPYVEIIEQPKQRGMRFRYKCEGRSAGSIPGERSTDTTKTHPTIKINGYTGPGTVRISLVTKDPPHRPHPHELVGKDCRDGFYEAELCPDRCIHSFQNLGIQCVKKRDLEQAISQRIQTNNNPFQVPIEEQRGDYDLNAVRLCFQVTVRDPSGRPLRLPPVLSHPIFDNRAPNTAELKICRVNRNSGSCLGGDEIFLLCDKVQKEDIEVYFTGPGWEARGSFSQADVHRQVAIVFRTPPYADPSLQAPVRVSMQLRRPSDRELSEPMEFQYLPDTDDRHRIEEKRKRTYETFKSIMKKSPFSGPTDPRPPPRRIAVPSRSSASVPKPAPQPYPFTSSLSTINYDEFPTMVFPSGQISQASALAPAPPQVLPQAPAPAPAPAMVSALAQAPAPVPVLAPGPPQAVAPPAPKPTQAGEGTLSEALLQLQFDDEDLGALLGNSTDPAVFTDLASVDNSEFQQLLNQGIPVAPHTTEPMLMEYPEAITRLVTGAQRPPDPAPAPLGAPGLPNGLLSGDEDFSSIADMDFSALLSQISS

| Substance | Kd [nM] |
| --- | --- |
| STX11 kB (weak) | 250 |
| IFN-b1 kB (strong) | 27 |
